# Legend:
# [1] = system: FDB muscle fibers from wild type (WT) mice; assay: FM1-43 dye entry after UV-laser damage, wild type FDB muscle fibers; assay type: cell-based; details: WT fibers; 2 μM zinc-ionophore
# Procedure: (§1) FIG. 20. Protective effect of zinc on membrane repair is lost in mg53−/− skeletal muscle. (a) individual flexor digitorum brevis (FDB) muscle fibers were isolated from wild type (WT) mice (3-6 months). A strong UV laser was applied to the FDB fiber that caused local damage to the muscle (arrow). Entry of FM1-43 fluorescent dye (2.5 μM) was used as an indicator for the measurement of membrane repair capacity. The images were taken 200 s following UV irradiation (control). […] (d) Schematic diagram of zinc-binding motifs in MG53. The amino-terminus of MG53 contains two putative zinc-binding motifs: one located at the RING motif (a.a. 1-56, human cDNA), and the other located at the B-box motif (a.a. 86-117, human cDNA). The specific amino acids that participate in zinc-binding are indicated.
# as §1, with “Protective” for “FIG. 20. Protective”, “To access membrane repair capacity,” for “(a)”, “months) (FIG. 20a).” for “months).”, “Summary data for panel a and b (FIG. 20c). […]” for “(d)”, “indicated (FIG. 20d).” for “indicated.”
# [2] = system: C2C12 cells expressing GFP-MG53; assay: GFP-MG53 redistribution on agent application without injury; assay type: cell-based, murine; details: 20 μM Zn-HPT, prolonged incubation (15 min)
# Text: Extracellular zinc entry is essential for MG53-mediated vesicle translocation to acute membrane injury sites. To follow the process of intracellular vesicle translocation associated with repair of acute membrane damage, GFP-MG53 fusion protein was expressed in C2C12 myoblast cells (FIG. 21a). […] Acute injury of the cell generated by penetration of a microelectrode caused rapid translocation of MG53-containing vesicles at the injury site (arrow, right panel). […] C2C12 cells transiently transfected with GFP-MG53 was incubated with 20 μM Zn-HPT. Under control condition (0 min), GFP-MG53 was distributed in the cytosol, as well as intracellular vesicles (FIG. 21d).
# An active ingredient from notoginseng can facilitate MG53-membrane repair function. GFP-MG53 was expressed in C2C12 cells and then these cells were perfused with an alcohol extract from notoginseng. […] Based on this observation, we reasoned that a therapeutic approach with the combination of MG53 and notoginseng may provide additive protective effects in preventing both inflammation and membrane damage to the cells, and thus can improve the function of MG53 when applied in tandem with recombinant MG53 protein or when applied alone as a supplement of pharmaceutical.
# [3] = system: FDB muscle fibers from mg53−/− mice; assay: FM1-43 dye entry after UV-laser damage, mg53−/− FDB muscle fibers; assay type: cell-based; details: mg53−/− fibers; +Zn-HPT
# Procedure: as §1
# as §1, with “Protective” for “FIG. 20. Protective”, “To access membrane repair capacity,” for “(a)”, “months) (FIG. 20a).” for “months).”, “Summary data for panel a and b (FIG. 20c). […]” for “(d)”, “indicated (FIG. 20d).” for “indicated.”
# mg53−/− myotubes = assay: Membrane repair in transfected mg53−/− myotubes; assay type: cell-based, mice; details: primary cultured mg53−/− myotubes
# Text: The entry of FM4-64, a red-shifted variant of FM1-43, was used as an index of membrane repair capacity in mg53−/− myotubes transfected with GFP-MG53 and GFP-C242A. Following UV-bleaching of the green fluorescence, rapid translocation of GFP-MG53 took place at the injury site, whereas GFP-C242A remained static due to its defective oligomerization properties (FIG. 16E, 17A).
# Similar defects with GFP-C29L were also observed in C2C12 myotubes (FIG. 18e, middle).
# [4] = system: E3-ligase activity of MG53; assay: In vitro ubiquitination with ATP, ubiquitin, E1 and E2 enzymes; assay type: biochemical; details: Ubc4 or UbcH5 as E2
# Procedure: To test whether MG53 can catalyze ubiquitination in vitro, we prepared a recombinant maltose-binding protein (MBP) fusion protein for MG53. MBP-MG53 was incubated with ATP, ubiquitin, E1 and E2 enzymes, and subjected to immunoblotting with the anti-MBP antibody. […] The exclusion of either ubiquitin, E1 or E2 (UbcH5) from the assay abolished the appearance of such ladders, confirming that the modification acquired by MBP-MG53 was indeed auto-ubiquitination. […] Thus, MG53 is a Ring-finger type ubiquitin ligase that couples with Ubc4/5 sub-family of E2 enzymes.
# [5] = system: C2C12 cells expressing GFP-MG53; assay: Repair of acute membrane damage: translocation to microelectrode injury site; assay type: cell-based, murine; details: C2C12 cells
# Procedure: To follow the process of intracellular vesicle translocation associated with repair of acute membrane damage, GFP-MG53 fusion protein was expressed in C2C12 myoblast cells (FIG. 21a). […]
# Cell culture—The C2C12 murine myoblast cell line used for all studies was purchased from the American Type Culture Collection (Manassas, Va.). Cells were grown in a humidified environment at 37° C. and 5% CO2 in DMEM medium for C2C12 or Ham's F12 medium for CHO cells supplemented with 10% fetal bovine serum, 100 units/ml penicillin and 100 ug/ml streptomycin. In order to induce myotube differentiation, C2C12 myoblasts were grown to confluence and the medium was switched to DMEM containing 2% horse serum, penicillin (100 U/ml), streptomycin (100 μg/ml). For transient transfections, C2C12 myoblasts or CHO cells were plated at 70% confluence in glass-bottom dishes. After 24 hours, cells were transfected with plasmids described above using GeneJammer reagent (Stratagene). Cells were visualized by live cell confocal imaging at 24-48 hours after transfection or at times indicated for individual experiments. In some experiments, C2C12 myoblasts were allowed to differentiate into myotubes for the indicated time before observation.
# Live cell imaging—To monitor intracellular trafficking of GFP-MG53 either CHO or C2C12 cells were cultured in glass-bottom dishes (Bioptechs Inc.) and transfected with the plasmids described above. Fluorescence images (512×512) were captured at 3.18 s/frame using a BioRad 2100 Radiance laser scanning confocal microscope with a 63×1.3NA oil immersion objective.
# HEK293 cells [6] = assay: LDH release after electroporation, HEK293; assay type: cell-based, human; details: 10 ug/mL, extracellular; various field strengths
# Procedure: Genetic overexpression of MG53 can prevent membrane damage. Human embryonic kidney (HEK293) cells were transfected with RFP-MG53 or RFP and then electroporated with fields of varying strength (FIG. 32). The amount of membrane damage was measured by assessing the amount of lactate dehydrogenase (LDH) that leaks into the extracellular media out of holes in the plasma membrane produced by electroporation. The more damage that occurs to the membrane, the higher the reading on the LDH assay will be. […] Thus, expression of exogenous MG53 in non-muscle cells can increase the capacity for cell membrane repair in such non-muscle cells.
# (§2) Recombinant MG53 can protect kidney cells from cell membrane damage. (a) HEK293 cells (8×10^4) were treated with 10 ug/mL recombinant human MG53 or vehicle control and then electroporated at various field strengths (FIG. 35). […] (b) MG53 or a vehicle control was added to recombinant LDH to generate standard curves for LDH activity.
# [7] = system: Hela cervical epithelial cells; assay: Resealing after glass bead damage, Hela; assay type: cell-based; details: glass beads
# Text: Effects of MG53 are specific to the function of the protein.
# [8] = system: Human IB3 airway epithelial cells; assay: LDH release after glass bead damage, IB3; assay type: cell-based; details: glass beads; external protein
# Procedure: External MG53 can reseal to membrane damage in airway epithelial cells. Human IB3 airway epithelial cells were treated with external recombinant human MG53 or vehicle control and then exposed to mechanical membrane damage by glass beads (FIG. 48).
# HEPM cells [9] = assay: LDH release after electroporation, HEPM; assay type: cell-based, human; details: 10 ug/mL, extracellular; various field strengths
# Procedure: as §2, with “gum lining” for “kidney”, “HEPM” for “HEK293”, “(5×10^4)” for “(8×10^4)”, “36).” for “35).”
# HEK293 cells [10] = assay: LDH release after glass microbead damage, HEK293; assay type: cell-based, human; details: glass microbeads
# Procedure: Recombinant MG53 can protect kidney cells from mechanical cell membrane damage. HEK293 cells (8×10^4) were treated with glass microbeads to induce mechanical damage (FIG. 37). Different does of recombinant human MG53 or vehicle control was applied to the samples when glass beads were added to the media. Cells were rotated on an orbital shaker and then the supernatant was analyzed for LDH levels.
# (§3) Externally applied recombinant MG53 requires phosphatidylserine (PS) binding to reseal damaged membranes. HEK293 cells were treated with recombinant human MG53 or vehicle and them damaged by shaking in the presence of glass microbeads (black bars) (FIG. 40). Membrane damage is measured by LDH release from cells that is recorded by colormetric assay recorded at 488 nm. […] Thus, MG53 must be able to bind exposed PS on damaged cells in order to facilitate membrane repair. * p<0.05
# as §3, with “HEK293” for “Externally applied recombinant MG53 requires phosphatidylserine (PS) binding to reseal damaged membranes. HEK293”, “41).” for “40).”
# HEPM cells [11] = assay: LDH release after LPS treatment; assay type: cell-based, human; details: LPS 1 mg/mL, 24 hours, co-incubation
# Text: Lipopolysaccarides can induce membrane damage in HEPM cells that can be prevented by exposure to MG53.
# [12] = PIP2-Strip lipid dot blot; assay type: binding; details: 1 μg/ml
molecule,measurement,setting,value
"[O-]n1ccccc1=S.[O-]n1ccccc1=S.[Zn+2] [Zn-HPT, Zn-1-hydroxypyridine-2-thine]",membrane repair capacity (FM1-43 dye entry),[1],increased membrane repair capacity
same,redistribution of GFP-MG53,[2],caused redistribution of GFP-MG53 toward the cell surface membrane and the intracellular membrane compartments
same,membrane repair capacity (FM1-43 dye entry),[3],did not produce protective effect on membrane repair
"C29L: MG53 mutant, Cys-29 in the Ring-finger motif replaced with leucine; GFP fusion, MBP fusion in b268 (protein, left off: large carriers, MG53 mutant, Cys-29 in the Ring-finger motif replaced with leucine; GFP fusion, MBP fusion) MSAAPGLLRQELSCPLCLQLFDAPVTAELGHSFCRACLIRVAGEPAADGTVACPCCQAPTRPQALSTNLQLSRLVEGLAQVPQGHCEEHLDPLSIYCEQDRTLVCGVCASLGSHRGHRLLPAAEAQARLKTQLPQQKMQLQEACMRKEKTVAVLEHQLVEVEETVRQFRGAVGEQLGKMRMFLAALESSLDREAERVRGDAGVALRRELSSLNSYLEQLRQMEKVLEEVADKPQTEFLMKFCLVTSRLQKILSESPPPARLDIQLPVISDDFKFQVWKKMFRALMPALEELTFDPSSAHPSLVVSSSGRRVECSDQKAPPAGEDTRQFDKAVAVVAQQLLSQGEHYWEVEVGDKPRWALGVMAADASRRGRLHAVPSQGLWLLGLRDGKILEAHVEAKEPRALRTPERPPARIGLYLSFADGVLAFYDASNPDVLTPIFSFHERLPGPVYPIFDVCWHDKGKNAQPLLLVGPEQEQA",translocation to the plasma membrane following injury,mg53−/− myotubes,remained generally unresponsive to acute cell injury
same,ubiquitination / intrinsic E3-ligase activity,[4],significantly reduced
same,Membrane Repair (+Zn-HPT),"[5]; 2 μM Zn-HPT, listed as GFP-C29L",partially rescue the movement
same,translocation to injury site and membrane repair function of GFP fusion protein,[5]; acute membrane damage,immobile and ineffective in repair of membrane injury
same,Membrane Repair (−Zn-HPT),"[5]; extracellular solution with nominal free zinc, listed as GFP-C29L",defective movement toward the acute injury site
"recombinant human MG53: recombinant mitsugumin53 protein, muscle-specific TRIM family protein, applied extracellularly (protein) MSAAPGLLHQELSCPLCLQLFDAPVTAECGHSFCRACLGRVAGEPAADGTVLCPCCQAPTRPQALSTNLQLARLVEGLAQVPQGHCEEHLDPLSIYCEQDRALVCGVCASLGSHRGHRLLPAAEAHARLKTQLPQQKLQLQEACMRKEKSVAVLEHQLVEVEETVRQFRGAVGEQLGKMRVFLAALEGSLDCEAERVRGEAGVALRRELGSLNSYLEQLRQMEKVLEEVADKPQTEFLMKYCLVTSRLQKILAESPPPARLDIQLPIISDDFKFQVWRKMFRALMPALEELTFDPSSAHPSLVVSSSGRRVECSEQKAPPAGEDPRQFDKAVAVVAHQQLSEGEHYWEVDVGDKPRWALGVIAAEAPRRGRLHAVPSQGLWLLGLREGKILEAHVEAKEPRALRSPERRPTRIGLYLSFGDGVLSFYDASDADALVPLFAFHERLPRPVYPFFDVCWHDKGKNAQPLLLVGPEGAEA",membrane damage (LDH) from electroporation,HEK293 cells [6],can prevent damage from electroporation
same,membrane resealing,[7],effective at resealing damage
same,membrane resealing,[7]; recombinant protein boiled,can no longer facilitate membrane resealing
same,cell membrane damage (LDH release),[8],could prevent cell membrane damage due to mechanical damage
same,membrane damage (LDH) from electroporation,HEPM cells [9],can prevent damage from electroporation
same,saturating dose,HEK293 cells [10],~10 µg/mL
same,mechanical membrane damage (LDH levels),HEK293 cells [10]; different doses,can prevent mechanical membrane damage
same,prevention of LPS induced damage (LDH release),HEPM cells [11],can prevent damage to HEPM cells produced by LPS
same,lipid binding,[12],specifically binds phosphatidylserine (PS) and not other membrane lipids

# From patent US9458465B2, “Compositions and methods to modulate cell membrane resealing” (RUTGERS, THE STATE UNIVERSITY OF NEW JERSEY, priority 2007, dated 2016)
